Test results taken from patent US20100016408A1 (NEW YORK UNIVERSITY, published 2010).

B1: HA-tagged Cdh1 (other)
chain: MDQDYERRLLRQIVIQNENTMPRVTEMRRTLTPASSPVSSPSKHGDRFIPSRAGANWSVNFHRINENEKSPSQNRKAKDATSDNGKDGLAYSALLKNELLGAGIEKVQDPQTEDRRLQPSTPEKKGLFTYSLSTKRSSPDDGNDVSPYSLSPVSNKSQKLLRSPRKPTRKISKIPFKVLDAPELQDDFYLNLVDWSSLNVLSVGLGTCVYLWSACTSQVTRLCDLSVEGDSVTSVGWSERGNLVAVGTHKGFVQIWDAAAGKKLSMLEGHTARVGALAWNAEQLSSGSRDRMILQRDIRTPPLQSERRLQGHRQEVCGLKWSTDHQLLASGGNDNKLLVWNHSSLSPVQQYTEHLAAVKAIAWSPHQHGLLASGGGTADRCIRFWNTLTGQPLQCIDTGSQVCNLAWSKHANELVSTHGYSQNQILVWKYPSLTQVAKLTGHSYRVLYLAMSPDGEAIVTGAGDETLRFWNVFSKTRSTKESVSVLNLFTRIR
notes: not shown: HA tag
B2: FLAG-tagged Fbxw5 (other, UniProt Q969U6 1-566, looked up)
chain: MDEGGTPLLPDSLVYQIFLSLGPADVLAAGLVCRQWQAVSRDEFLWREQFYRYYQVARDVPRHPAAMSWYEEFQRLYDTVPCVEVQTLREHTDQVLHLSFSHSGYQFASCSKDCTVKIWSNDLTISLLHSADMRPYNWSYTQFSQFNKDDSLLLASGVFLGPHNSSSGEIAVISLDSFALLSRVRNKPYDVFGCWLTETSLISGNLHRIGDITSCSVLWLNNAFQDVESENVNVVKRLFKIQNLNASTVRTVMVADCSRFDSPDLLLEAGDPATSPCRIFDLGSDNEEVVAGPAPAHAKEGLRHFLDRVLEGRAQPQLSERMLETKVAELLAQGHTKPPERSATGAKSKYLIFTTGCLTYSPHQIGIKQILPHQMTTAGPVLGEGRGSDAFFDALDHVIDIHGHIIGMGLSPDNRYLYVNSRAWPNGAVVADPMQPPPIAEEIDLLVFDLKTMREVRRALRAHRAYTPNDECFFIFLDVSRDFVASGAEDRHGYIWDRHYNICLARLRHEDVVNSVVFSPQEQELLLTASDDATIKAWRSPRTMRVLQAPRPRPRTFFSWLASQRR
notes: not shown: FLAG tag
B3: FLAG-tagged Fbxw4 (other, UniProt P57775 1-412, looked up)
chain: MAAAAGEEEEEEEAARESAARPAAGPALWRLPEELLLLICSYLDMRALGRLAQVCRWLRRFTSCDLLWRRIARASLNSGFTRLGTDLMTSVPVKERVKVSQNWRLGRCREGILLKWRCSQMPWMQLEDDSLYISQANFILAYQFRPDGASLNRRPLGVFAGHDEDVCHFVLANSHIVSAGGDGKIGIHKIHSTFTVKYSAHEQEVNCVDCKGGIIVSGSRDRTAKVWPLASGRLGQCLHTIQTEDRVWSIAISPLLSSFVTGTACCGHFSPLRIWDLNSGQLMTHLGSDFPPGAGVLDVMYESPFTLLSCGYDTYVRYWDLRTSVRKCVMEWEEPHDSTLYCLQTDGNHLLATGSSYYGVVRLWDRRQRACLHAFPLTSTPLSSPVYCLRLTTKHLYAALSYNLHVLDFQNP
notes: not shown: FLAG tag

How the values were obtained:
FLAG-tagged Claspin(EEN) = biological target: T1, FLAG-tagged Claspin(EEN) (human, UniProt Q9HAW4 1-1339, limits assumed); experiment: co-immunoprecipitation with anti-HA antibody from HEK293T cells, immunoblot (FIG. 3F)
T1 construct: also called mutant #2; not shown: FLAG tag
T1 sequence (Q9HAW4 other isoform, or with tags, fused parts or gaps limits assumed): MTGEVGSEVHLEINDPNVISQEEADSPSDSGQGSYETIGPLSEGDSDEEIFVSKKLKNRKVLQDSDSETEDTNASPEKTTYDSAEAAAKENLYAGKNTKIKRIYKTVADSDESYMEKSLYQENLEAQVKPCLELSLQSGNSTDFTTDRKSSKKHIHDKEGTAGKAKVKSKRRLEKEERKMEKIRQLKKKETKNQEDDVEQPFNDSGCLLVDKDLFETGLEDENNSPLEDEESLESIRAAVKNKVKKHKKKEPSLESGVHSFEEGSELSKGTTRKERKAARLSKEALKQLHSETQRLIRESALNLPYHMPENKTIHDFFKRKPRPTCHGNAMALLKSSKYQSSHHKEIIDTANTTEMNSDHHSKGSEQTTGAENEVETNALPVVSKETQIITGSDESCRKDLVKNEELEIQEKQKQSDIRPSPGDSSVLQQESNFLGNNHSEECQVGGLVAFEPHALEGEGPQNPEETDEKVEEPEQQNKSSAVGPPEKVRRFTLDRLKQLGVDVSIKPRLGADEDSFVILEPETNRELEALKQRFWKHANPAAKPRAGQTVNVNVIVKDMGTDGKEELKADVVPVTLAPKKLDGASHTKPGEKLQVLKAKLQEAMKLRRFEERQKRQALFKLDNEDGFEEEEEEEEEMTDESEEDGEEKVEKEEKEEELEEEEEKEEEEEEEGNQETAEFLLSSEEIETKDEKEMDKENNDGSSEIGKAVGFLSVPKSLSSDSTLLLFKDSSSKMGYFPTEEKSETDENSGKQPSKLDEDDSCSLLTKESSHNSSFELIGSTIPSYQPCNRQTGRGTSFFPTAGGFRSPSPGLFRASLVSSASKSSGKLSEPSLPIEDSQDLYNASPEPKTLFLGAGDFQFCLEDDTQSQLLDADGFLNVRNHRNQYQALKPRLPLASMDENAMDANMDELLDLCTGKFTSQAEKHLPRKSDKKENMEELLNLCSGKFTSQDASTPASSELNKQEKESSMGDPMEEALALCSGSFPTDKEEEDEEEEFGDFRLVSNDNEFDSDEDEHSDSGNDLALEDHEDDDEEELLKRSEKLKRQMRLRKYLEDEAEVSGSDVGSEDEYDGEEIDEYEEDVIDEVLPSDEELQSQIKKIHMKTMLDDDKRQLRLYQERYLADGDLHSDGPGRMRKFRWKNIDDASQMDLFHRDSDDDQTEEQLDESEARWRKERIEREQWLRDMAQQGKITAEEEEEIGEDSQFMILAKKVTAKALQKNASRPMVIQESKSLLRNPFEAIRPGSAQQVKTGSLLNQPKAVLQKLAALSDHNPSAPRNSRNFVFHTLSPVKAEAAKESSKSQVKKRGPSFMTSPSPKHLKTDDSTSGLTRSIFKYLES
Method: (§1) HEK293T cells were cotransfected with HA-tagged Cdh1 and the indicated FLAG-tagged Claspin mutants. Whole cell extracts (WCE, bottom two panels, FIG. 3B) were immunoprecipitated (IP, upper two panels FIG. 3B) with an anti-HA antibody, and the indicated proteins were detected by immunoblotting. Finally, five unique, triple-point-mutations to Alanine across Claspin amino acids 79-102 were inserted, following the pattern of evolutionary conserved residues (FIG. 3E), and these mutants were assayed for binding to Cdh1. […] Thus, these studies identified the motif “EENxENL” (SEQ ID NO:29) located at residues 86-92 of Claspin (SEQ ID NO: 9), as the site mediating binding to Cdh1. Accordingly, in contrast to wild type Claspin, Claspin(ENL) was stable in HeLa cells progressing through G1 (FIG. 2C).

FLAG-tagged Claspin(ENL) = biological target: T2, FLAG-tagged Claspin(ENL) (human, UniProt Q9HAW4 1-1339, limits assumed); experiment: as above
T2 construct: also called mutant #3; not shown: FLAG tag
T2 sequence (Q9HAW4 other isoform, or with tags, fused parts or gaps limits assumed): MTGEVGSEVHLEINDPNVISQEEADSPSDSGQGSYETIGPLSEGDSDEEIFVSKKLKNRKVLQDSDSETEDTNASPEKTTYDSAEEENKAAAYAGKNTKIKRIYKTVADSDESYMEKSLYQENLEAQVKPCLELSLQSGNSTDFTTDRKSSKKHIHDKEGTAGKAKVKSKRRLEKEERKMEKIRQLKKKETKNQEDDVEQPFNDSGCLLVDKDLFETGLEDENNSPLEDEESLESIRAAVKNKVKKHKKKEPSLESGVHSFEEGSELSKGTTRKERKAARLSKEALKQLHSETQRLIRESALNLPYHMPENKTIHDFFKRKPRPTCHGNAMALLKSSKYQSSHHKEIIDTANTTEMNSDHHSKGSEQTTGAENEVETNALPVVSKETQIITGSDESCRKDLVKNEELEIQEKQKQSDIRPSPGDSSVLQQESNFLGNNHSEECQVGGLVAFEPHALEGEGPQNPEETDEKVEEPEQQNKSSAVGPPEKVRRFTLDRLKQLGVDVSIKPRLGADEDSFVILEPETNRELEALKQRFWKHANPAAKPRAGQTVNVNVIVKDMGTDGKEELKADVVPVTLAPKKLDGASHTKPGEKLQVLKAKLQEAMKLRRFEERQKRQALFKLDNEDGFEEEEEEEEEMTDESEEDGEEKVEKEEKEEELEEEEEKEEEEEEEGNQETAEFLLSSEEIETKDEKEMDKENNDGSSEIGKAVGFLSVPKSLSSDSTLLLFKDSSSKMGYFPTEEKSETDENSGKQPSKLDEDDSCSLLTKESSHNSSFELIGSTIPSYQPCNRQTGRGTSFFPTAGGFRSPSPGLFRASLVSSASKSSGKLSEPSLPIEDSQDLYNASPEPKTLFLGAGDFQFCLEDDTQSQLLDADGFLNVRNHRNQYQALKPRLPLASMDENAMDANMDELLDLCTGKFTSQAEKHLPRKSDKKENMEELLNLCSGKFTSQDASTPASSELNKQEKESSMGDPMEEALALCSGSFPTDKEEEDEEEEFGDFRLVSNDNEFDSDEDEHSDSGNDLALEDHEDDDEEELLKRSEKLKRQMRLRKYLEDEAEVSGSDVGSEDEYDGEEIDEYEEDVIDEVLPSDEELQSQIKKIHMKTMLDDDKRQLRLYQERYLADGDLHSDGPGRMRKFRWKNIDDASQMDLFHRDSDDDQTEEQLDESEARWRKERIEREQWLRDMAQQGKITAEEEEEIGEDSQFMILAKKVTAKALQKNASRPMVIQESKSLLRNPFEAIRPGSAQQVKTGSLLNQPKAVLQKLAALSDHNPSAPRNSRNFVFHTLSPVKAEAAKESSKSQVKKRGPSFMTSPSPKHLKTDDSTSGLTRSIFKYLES
Method: as §1

Claspin = biological target: T3, Claspin (human, UniProt Q9HAW4 1-1339); experiment: co-immunoprecipitation with anti-FLAG resin from HEK293T cells, immunoblot for endogenous Claspin (FIG. 2A)
T3 construct: also called endogenous Claspin; wild type Claspin
T3 sequence (Q9HAW4 whole entry): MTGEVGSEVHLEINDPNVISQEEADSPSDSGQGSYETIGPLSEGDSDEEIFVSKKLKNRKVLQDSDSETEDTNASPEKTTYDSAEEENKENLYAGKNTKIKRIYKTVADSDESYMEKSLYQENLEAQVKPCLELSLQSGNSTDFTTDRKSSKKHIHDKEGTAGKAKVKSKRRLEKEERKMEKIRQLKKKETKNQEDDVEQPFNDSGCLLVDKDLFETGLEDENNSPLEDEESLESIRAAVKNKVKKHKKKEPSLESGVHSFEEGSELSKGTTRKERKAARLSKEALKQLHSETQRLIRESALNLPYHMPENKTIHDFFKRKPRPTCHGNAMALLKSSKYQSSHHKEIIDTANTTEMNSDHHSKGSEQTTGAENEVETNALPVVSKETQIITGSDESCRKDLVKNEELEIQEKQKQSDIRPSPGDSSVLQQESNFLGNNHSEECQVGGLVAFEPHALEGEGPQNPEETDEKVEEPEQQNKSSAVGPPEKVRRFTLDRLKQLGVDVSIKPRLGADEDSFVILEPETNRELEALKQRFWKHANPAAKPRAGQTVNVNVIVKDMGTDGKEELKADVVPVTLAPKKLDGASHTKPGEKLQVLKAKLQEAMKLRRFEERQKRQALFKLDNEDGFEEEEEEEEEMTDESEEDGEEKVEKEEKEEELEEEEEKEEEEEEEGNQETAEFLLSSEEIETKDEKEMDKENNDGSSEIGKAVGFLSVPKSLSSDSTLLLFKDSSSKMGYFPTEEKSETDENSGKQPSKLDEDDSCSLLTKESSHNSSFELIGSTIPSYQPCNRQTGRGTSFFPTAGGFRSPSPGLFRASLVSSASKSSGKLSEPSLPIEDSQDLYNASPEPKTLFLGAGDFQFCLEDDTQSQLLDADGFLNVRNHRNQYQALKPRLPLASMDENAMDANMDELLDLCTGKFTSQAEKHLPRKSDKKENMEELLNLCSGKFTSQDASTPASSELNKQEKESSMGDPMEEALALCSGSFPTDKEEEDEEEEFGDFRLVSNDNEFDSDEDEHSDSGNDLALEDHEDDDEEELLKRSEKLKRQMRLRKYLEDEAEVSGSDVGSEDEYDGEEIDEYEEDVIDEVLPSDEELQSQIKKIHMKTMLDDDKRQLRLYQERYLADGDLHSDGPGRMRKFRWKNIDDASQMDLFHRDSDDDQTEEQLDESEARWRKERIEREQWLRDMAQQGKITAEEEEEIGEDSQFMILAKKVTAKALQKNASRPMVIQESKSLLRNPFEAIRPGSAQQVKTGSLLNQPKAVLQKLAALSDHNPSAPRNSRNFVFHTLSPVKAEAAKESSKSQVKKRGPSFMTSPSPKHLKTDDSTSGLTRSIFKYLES
Method: To test whether APC/C^Cdh1 has a role in the degradation of Claspin during G0/G1, the expression of Cdh1 was reduced in T98G cells using a validated […] (SEQ ID NO:21). T98G cells were serum starved following knockdown of Cdh1, and the expression levels of Claspin were analyzed at various time points thereafter. FIGS. 2A-D are immunoblots showing Claspin is degraded in G0 and G1 via the APC/C^Cdh1 ubiquitin ligase. […] HEK293T cells were transfected with the indicated FLAG-tagged constructs or an empty vector (EV). Whole cell extracts (WCE) were immunoprecipitated (IP) with anti-FLAG resin, and immunocomplexes were probed with antibodies to the indicated proteins.

Binder	binding result (FLAG-tagged Claspin(EEN))	binding result (FLAG-tagged Claspin(ENL))	binding result (Claspin)
B1	no binding	no binding	
B2			no binding
B3			no binding
